Data published in patent US7109015B2, “Removal of N-terminal methionine from proteins by engineered methionine aminopeptidase” (Academia Sinica, priority 2004, dated 2006).
“And” between values parts separate entries of the source, which are not always exact repeats. Equal entries are not always repeated. Where two headings read alike, the source gives them in different places.

Experiments:
Met-tagged onconase = assay: In vivo catalytic activity of MetAPs co-expressed with Met-tagged onconase in E. coli BL21(DE3); N-terminus by Edman degradation; type: cell-based; conditions: in vivo in E. coli
Source text: Residues Tyr168, Met206 and Gln233 in the putative substrate-binding site of E. coli MetAP were mutated by site-directed mutagenesis based on the crystal structure and amino acid sequence alignment of MetAPs (Ben-Bassat et al., 1987; Lowther et al., 1999; Walker et al., 1999). For the expression of secretory ribonucleases, the ribonuclease gene was cloned and expressed as described previously (Huang et al., 1998).
Most of the co-expressed target protein, e.g., onconase or RC-RNase L1, existed in insoluble cell lysate. They were denatured, renatured and purified as described previously (Liao et al., 2003). The purified ribonucleases were stored in 20 mM sodium phosphate, pH 7.0, for pyroglutamate formation at the N-terminus. Alternatively, the ribonuclease secreted into culture medium through pe1B system was concentrated and purified to electrophoretical homogeneity at a yield of 1˜5 mg per 1 liter of culture (Huang et al., 1998).

synthetic oligopeptides [1] = target: T1, synthetic oligopeptides (Escherichia coli, UniProt P0AE18, M206T/Q233G/Y168G); type: biochemical; conditions: dodecapeptides, in vitro
T1 construct: […]; made in house; host or cells: E. coli BL21(DE3)
T1 sequence (P0AE18 2-264 Y168G/M206T/Q233G): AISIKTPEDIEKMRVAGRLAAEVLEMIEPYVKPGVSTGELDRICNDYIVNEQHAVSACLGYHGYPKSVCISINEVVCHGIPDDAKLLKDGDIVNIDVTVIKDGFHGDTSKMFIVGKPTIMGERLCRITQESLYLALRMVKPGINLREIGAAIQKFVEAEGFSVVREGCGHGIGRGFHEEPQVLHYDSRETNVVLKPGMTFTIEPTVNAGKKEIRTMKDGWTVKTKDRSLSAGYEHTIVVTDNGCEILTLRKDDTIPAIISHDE
Experimental: (§1) The oligopeptide substrates used in this experiment were synthesized on the 432A Synergy peptide synthesizer (Applied Biosystems, Foster, Calif., USA). The enzymatic activity of purified MetAP was assayed as described by Ben-Bassat et al., 1987. Briefly, the diluted MetAP enzyme in 10 μl was added to 90 μl of the substrate solution containing 4 mM oligopeptide, 0.1 M potassium phosphate buffer, pH 7.5 and 0.2 mM CoCl2, incubated at 37° C. for 10 min and stopped in boiling water for 2 min. After addition of 0.9 ml of color development mixture containing 0.2 mg of L-amino acid oxidase, 0.03 mg of horseradish peroxidase and 0.2 mg of o-dianisidine in 0.1 M Tris-HCl, pH 7.4, the mixtures were incubated for 10 min at 37° C., and the optical density at 440 nm was recorded. One unit of activity is defined as 1 μmol of amino acids produced per min under the assay conditions and the pure Met was used as standard. The N-terminal residues of the MetAP-treated oligopeptide were further verified by Edman degradation.

synthetic oligopeptides [2] = type: biochemical; conditions: for Specific activity (unit/mg): 4 mM oligopeptide, pH 7.5, 37° C.
Experimental: as §1

B1: MetAP-GTG (protein)
chain: AISIKTPEDIEKMRVAGRLAAEVLEMIEPYVKPGVSTGELDRICNDYIVNEQHAVSACLGYHGYPKSVCISINEVVCHGIPDDAKLLKDGDIVNIDVTVIKDGFHGDTSKMFIVGKPTIMGERLCRITQESLYLALRMVKPGINLREIGAAIQKFVEAEGFSVVREGCGHGIGRGFHEEPQVLHYDSRETNVVLKPGMTFTIEPTVNAGKKEIRTMKDGWTVKTKDRSLSAGYEHTIVVTDNGCEILTLRKDDTIPAIISHDE
Met-tagged onconase; substrate MAA-Onc
  Catalytic activity (%): percent of penultimate residue removed: 30%
  Catalytic activity (%): removal of N-terminal Met: 100%
Met-tagged onconase; substrate MAG-Onc
  Catalytic activity (%): percent of penultimate residue removed: 16%
  Catalytic activity (%): removal of N-terminal Met: 86%
Met-tagged onconase; substrate MAL-Onc
  Catalytic activity (%): removal of N-terminal Met: 100%
Met-tagged onconase; substrate MAM-Onc
  Catalytic activity (%): removal of N-terminal Met: 96%
Met-tagged onconase; substrate MDD-Onc
  Catalytic activity (%): removal of N-terminal Met: 27%
Met-tagged onconase; substrate MED-Onc
  Catalytic activity (%): removal of N-terminal Met: 35%
Met-tagged onconase; substrate MFA-Onc
  Catalytic activity (%): percent of penultimate residue removed: 100%
  Catalytic activity (%): removal of N-terminal Met: 36%
Met-tagged onconase; substrate MFD-Onc
  Catalytic activity (%): removal of N-terminal Met: 23%
Met-tagged onconase; substrate MIA-Onc
  Catalytic activity (%): removal of N-terminal Met: 96%
Met-tagged onconase; substrate MID-Onc
  Catalytic activity (%): removal of N-terminal Met: 94%
Met-tagged onconase; substrate MKA-Onc
  Catalytic activity (%): removal of N-terminal Met: 9%
Met-tagged onconase; substrate MKD-Onc
  Catalytic activity (%): removal of N-terminal Met: 7%
Met-tagged onconase; substrate MLA-Onc
  Catalytic activity (%): percent of penultimate residue removed: 80%
  Catalytic activity (%): removal of N-terminal Met: 100%
Met-tagged onconase; substrate MLD-Onc
  Catalytic activity (%): removal of N-terminal Met: 90% and 98%
Met-tagged onconase; substrate MLG-Onc
  Catalytic activity (%): percent of penultimate residue removed: 46%
  Catalytic activity (%): removal of N-terminal Met: 87%
Met-tagged onconase; substrate MLH-Onc
  Catalytic activity (%): percent of penultimate residue removed: 51%
  Catalytic activity (%): removal of N-terminal Met: 100%
Met-tagged onconase; substrate MLL-Onc
  Catalytic activity (%): percent of penultimate residue removed: 55%
  Catalytic activity (%): removal of N-terminal Met: 93%
Met-tagged onconase; substrate MLM-Onc
  Catalytic activity (%): removal of N-terminal Met: 100%
Met-tagged onconase; substrate MLN-Onc
  Catalytic activity (%): percent of penultimate residue removed: 68%
  Catalytic activity (%): removal of N-terminal Met: 100%
Met-tagged onconase; substrate MLP-Onc
  Catalytic activity (%): percent of penultimate residue removed: 95%
  Catalytic activity (%): removal of N-terminal Met: 55%
Met-tagged onconase; substrate MLS-Onc
  Catalytic activity (%): percent of penultimate residue removed: 69%
  Catalytic activity (%): removal of N-terminal Met: 87%
Met-tagged onconase; substrate MLT-Onc
  Catalytic activity (%): percent of penultimate residue removed: 54%
  Catalytic activity (%): removal of N-terminal Met: 72%
Met-tagged onconase; substrate MLV-Onc
  Catalytic activity (%): percent of penultimate residue removed: 69%
  Catalytic activity (%): removal of N-terminal Met: 97%
Met-tagged onconase; substrate MQD-Onc
  Catalytic activity (%): removal of N-terminal Met: 97%
Met-tagged onconase; substrate MQM-Onc
  Catalytic activity (%): percent of penultimate residue removed: 100%
  Catalytic activity (%): removal of N-terminal Met: 100%
  Catalytic activity (%): value in parenthesis after Met and Gln removal (third cleavage site, second Met): 73%
Met-tagged onconase; substrate MQN-Onc
  Catalytic activity (%): percent of penultimate residue removed: 90%
  Catalytic activity (%): removal of N-terminal Met: 83%
Met-tagged onconase; substrate MQP-Onc
  Catalytic activity (%): percent of penultimate residue removed: 100%
  Catalytic activity (%): removal of N-terminal Met: 54%
Met-tagged onconase; substrate MQT-Onc
  Catalytic activity (%): percent of penultimate residue removed: 79%
  Catalytic activity (%): removal of N-terminal Met: 86%
Met-tagged onconase; substrate MRA-Onc
  Catalytic activity (%): removal of N-terminal Met: 8%
Met-tagged onconase; substrate MRD-Onc
  Catalytic activity (%): removal of N-terminal Met: 4%
Met-tagged onconase; substrate MWA-Onc
  Catalytic activity (%): percent of penultimate residue removed: 89%
  Catalytic activity (%): removal of N-terminal Met: 100%
Met-tagged onconase; substrate MWD-Onc
  Catalytic activity (%): removal of N-terminal Met: 78%
Met-tagged onconase; substrate MWD-Onc, listed as GTG
  Catalytic activity (%): removal of N-terminal Met: much higher activities
Met-tagged onconase; substrate MYA-Onc
  Catalytic activity (%): removal of N-terminal Met: 22%
Met-tagged onconase; substrate MYD-Onc
  Catalytic activity (%): removal of N-terminal Met: 20%
Met-tagged onconase; substrate MYD-Onc, listed as GTG
  Catalytic activity (%): removal of N-terminal Met: much higher activities
Synthetic oligopeptides [1]
  Specific activity on […] as % of that for […]: 43%
Synthetic oligopeptides [2]; oligopeptides with Gln at the penultimate residue
  In vitro catalytic activity: the most activity
Synthetic oligopeptides [2]; substrate MADY (SEQ ID NO:7)
  Specific activity (unit/mg): 1.68 ± 0.51 unit/mg
Synthetic oligopeptides [2]; substrate MADYLT (SEQ ID NO:8)
  Specific activity (unit/mg): 2.50 ± 0.42 unit/mg
Synthetic oligopeptides [2]; substrate MQDYLT (SEQ ID NO:9)
  Specific activity (unit/mg): 0.23 ± 0.01 unit/mg
Synthetic oligopeptides [2]; substrate […] (SEQ ID NO:5)
  Specific activity (unit/mg): 9.80 ± 0.26 unit/mg
Synthetic oligopeptides [2]; substrate […] (SEQ ID NO:6)
  Specific activity (unit/mg): 4.24 ± 0.14 unit/mg
